Measured values taken from US20260201020A1, “METHODS FOR EXPRESSION OF FUSION-FREE BOVINE ULTRALONG CDR3 SCAFFOLD” (priority 2022, published 2026).
Read-outs that look alike come from different tables or passages of the source.

Tests used:
[1] = target: SARS-CoV-2 Spike RBD (SARS-CoV-2), P0DTC2
[2] = target: SARS-CoV-2 Spike RBD (SARS-CoV-2), P0DTC2; remark: listed apart in the source
[3] = target: SARS-CoV-2 Spike RBD (SARS-CoV-2), P0DTC2; remark: listed apart in the source
[4] = target: SARS-CoV-2 Spike RBD (SARS-CoV-2), P0DTC2; remark: listed apart in the source
[5] = target: SARS-CoV-2 Spike RBD (SARS-CoV-2), P0DTC2; remark: listed apart in the source
[6] = target: SARS-CoV-2 Spike RBD (SARS-CoV-2), P0DTC2; remark: listed apart in the source
[7] = target: SARS-CoV-2 Spike RBD (SARS-CoV-2), P0DTC2; remark: listed apart in the source
[8] = target: SARS-CoV-2 Spike RBD (SARS-CoV-2), P0DTC2; remark: listed apart in the source
[9] = target: SARS-CoV-2 Spike RBD (SARS-CoV-2), P0DTC2; remark: listed apart in the source
[10] = target: SARS-CoV-2 Spike RBD (SARS-CoV-2), P0DTC2; remark: listed apart in the source
[11] = target: SARS-CoV-2 Spike RBD (SARS-CoV-2), P0DTC2; remark: listed apart in the source
[12] = target: SARS-CoV-2 Spike RBD (SARS-CoV-2), P0DTC2; remark: listed apart in the source
[13] = target: SARS-CoV-2 Spike RBD (SARS-CoV-2), P0DTC2; remark: listed apart in the source
[14] = target: SARS-CoV-2 Spike RBD (SARS-CoV-2), P0DTC2; remark: listed apart in the source
[15] = target: SARS-CoV-2 Spike RBD (SARS-CoV-2), P0DTC2; remark: listed apart in the source
[16] = target: SARS-CoV-2 Spike RBD (SARS-CoV-2), P0DTC2; remark: listed apart in the source
[17] = target: SARS-CoV-2 Spike RBD (SARS-CoV-2), P0DTC2; remark: listed apart in the source
[18] = target: SARS-CoV-2 Spike RBD (SARS-CoV-2), P0DTC2; remark: listed apart in the source
[19] = target: SARS-CoV-2 Spike RBD (SARS-CoV-2), P0DTC2; remark: listed apart in the source
[20] = target: SARS-CoV-2 Spike RBD (SARS-CoV-2), P0DTC2; remark: listed apart in the source
[21] = target: SARS-CoV-2 Spike RBD (SARS-CoV-2), P0DTC2; remark: listed apart in the source
[22] = target: SARS-CoV-2 Spike RBD (SARS-CoV-2), P0DTC2; remark: listed apart in the source
[23] = target: SARS-CoV-2 Spike RBD (SARS-CoV-2), P0DTC2; remark: listed apart in the source
[24] = target: SARS-CoV-2 Spike RBD (SARS-CoV-2), P0DTC2; remark: listed apart in the source
[25] = target: SARS-CoV-2 Spike RBD (SARS-CoV-2), P0DTC2; remark: listed apart in the source
[26] = target: SARS-CoV-2 Spike RBD (SARS-CoV-2), P0DTC2; remark: listed apart in the source
[27] = target: SARS-CoV-2 Spike RBD (SARS-CoV-2), P0DTC2; remark: listed apart in the source

B1: R2G3-His (peptide)
chain: GGGGAMGSEGDKTCPDGYEHTCGCIGGCGCKRSACIGALCCQASLGGWLSDGETYTGGGGSGGGGSHHHHHH
modifications: not checked
Question: Which results are given for B1?
Answer: Adjusted Binding Rate [1]: 5.39 nm/s; Adjusted Binding Rate [2]: 7.1 nm/s; Adjusted Binding Rate [3]: 2.12 nm/s; Adjusted Binding Rate [4]: 3.4 nm/s; Adjusted Binding Rate [5]: 3.39 nm/s; Adjusted Binding Rate [6]: 6.47 nm/s; Adjusted Binding Rate [7]: 7.3 nm/s; Adjusted Binding Rate [8]: 3.79 nm/s; Adjusted Binding Rate [9]: 19.4 nm/s; Adjusted Binding Rate [10]: 4.91 nm/s; Adjusted Binding Rate [11]: 32.8 nm/s; Adjusted Binding Rate [12]: 34 nm/s; Adjusted Binding Rate [13]: 12.5 nm/s; Adjusted Binding Rate [14]: 14.3 nm/s; Adjusted Binding Rate [15]: 5.5 nm/s; Adjusted Binding Rate [16]: 22 nm/s; Adjusted Binding Rate [17]: 2.44 nm/s; Adjusted Binding Rate [18]: 1.5 nm/s; Adjusted Binding Rate [19]: 9.51 nm/s; Adjusted Binding Rate [20]: 6.42 nm/s; Adjusted Binding Rate [21]: 5.39 nm/s; Adjusted Binding Rate [22]: 34.6 nm/s; Adjusted Binding Rate [23]: 3.35 nm/s; Adjusted Binding Rate [24]: 7.24 nm/s; Adjusted Binding Rate [25]: 2.1 nm/s; Adjusted Binding Rate [26]: 7.34 nm/s; Adjusted Binding Rate [27]: 6.36 nm/s
